Source: patent US7163921 (dated 2007)
Numbered stars: 1 amine (or outer) side, 2 acyl side, 3 side chain; on linkers, the order of the positions; unused ones are H or OH. Square brackets hold non-standard residues; d marks the D form. * marks the point of attachment. X1 = N‑((R)-1-(2-naphthyl)ethyl)amide, C[C@@H](N*)c1ccc2ccccc2c1; 3,5‑dimethyl‑Tyr = Cc1cc(C[C@H](N[*:1])C(=O)[*:2])cc(C)c1O[*:3]; 6‑guanidinohexyl = N=C(N)NCCCCCC*

Experiments:
mu opioid receptor = mu opioid receptor (human, UniProt P35372); experiment: competition, [3H]diprenorphine, 25C, pH 7.8
nociceptin receptor = nociceptin receptor (human, UniProt P41146); experiment: competition, [3H]nociceptin, 25C, pH 7.8
Chain of nociceptin receptor (P41146 whole entry): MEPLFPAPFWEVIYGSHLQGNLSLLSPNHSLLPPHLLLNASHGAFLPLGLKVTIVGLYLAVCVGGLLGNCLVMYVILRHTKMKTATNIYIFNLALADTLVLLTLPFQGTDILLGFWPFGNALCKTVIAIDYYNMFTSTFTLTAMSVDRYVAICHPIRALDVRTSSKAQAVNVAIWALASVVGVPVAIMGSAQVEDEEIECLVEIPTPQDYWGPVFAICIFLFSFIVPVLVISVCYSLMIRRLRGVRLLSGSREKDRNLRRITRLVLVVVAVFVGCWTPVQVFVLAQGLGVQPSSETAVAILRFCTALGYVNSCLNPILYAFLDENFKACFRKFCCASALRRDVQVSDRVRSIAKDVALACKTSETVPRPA

Chain of mu opioid receptor (P35372 whole entry): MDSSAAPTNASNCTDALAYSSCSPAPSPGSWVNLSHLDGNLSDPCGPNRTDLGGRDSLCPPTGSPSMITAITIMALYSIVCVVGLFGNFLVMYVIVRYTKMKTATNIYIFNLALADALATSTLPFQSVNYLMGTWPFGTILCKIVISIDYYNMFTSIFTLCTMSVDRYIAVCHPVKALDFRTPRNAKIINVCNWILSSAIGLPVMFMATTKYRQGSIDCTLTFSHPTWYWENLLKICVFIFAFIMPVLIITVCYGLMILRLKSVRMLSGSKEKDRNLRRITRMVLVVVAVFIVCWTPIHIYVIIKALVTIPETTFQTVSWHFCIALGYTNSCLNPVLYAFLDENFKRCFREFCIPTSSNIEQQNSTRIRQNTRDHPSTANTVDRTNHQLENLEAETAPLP

Binder	Ki (mu opioid receptor)	Ki (nociceptin receptor)
{6‑guanidinohexyl}-[3,5‑dimethyl‑Tyr]-[3,5‑dimethyl‑Tyr]-Arg-X1 (SMILES Cc1cc(C[C@H](NCCCCCCNC(=N)N)C(=O)N[C@@H](Cc2cc(C)c(O)c(C)c2)C(=O)N[C@@H](CCCNC(=N)N)C(=O)N[C@H](C)c2ccc3ccccc3c2)cc(C)c1O)	10 nM	0.6 nM
{6‑guanidinopentyl}-Tyr-Tyr-Arg-X1 [Example 23 (N-α-6-guanidinopentyl-Tyr-Tyr-N-[(R)-1-(2-naphthyl)ethyl]-argininamide)]	59 nM	1.8 nM
{6‑guanidinohexyl}-YYRW-NH2 (SMILES N=C(N)NCCCCCCN[C@@H](Cc1ccc(O)cc1)C(=O)N[C@@H](Cc1ccc(O)cc1)C(=O)N[C@@H](CCCNC(=N)N)C(=O)N[C@@H](Cc1c[nH]c2ccccc12)C(N)=O) [Example 1 (N-α-6-guanidinohexyl-Tyr-Tyr-Arg-Trp-NH2)]	40 nM	0.43 nM
{6‑guanidinohexyl}-[3,5‑dimethyl‑Tyr]-Tyr-Arg-X1 (SMILES Cc1cc(C[C@H](NCCCCCCNC(=N)N)C(=O)N[C@@H](Cc2ccc(O)cc2)C(=O)N[C@@H](CCCNC(=N)N)C(=O)N[C@H](C)c2ccc3ccccc3c2)cc(C)c1O) [Example 25 (N-α-6-guanidinohexyl-3,5-dimethyl-Tyr-Tyr-N-[(R)-1-(2-naphthyl)ethyl]-argininamide)]	14 nM	0.9 nM
